The data set has as its system Escherichia coli TOP10. Description: shrunken log2 fold change of peptide-encoding DNA abundance (4.5 h post-induction vs induction); higher = less antimicrobial activity (less host growth inhibition). As to conditions: time post-induction: 4.5 h; library: site-saturation at positions 5, 18, 19, 20.
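Note: peptides expressed intracellularly from a pBAD plasmid library in pooled LB shake-flask culture, induced with 0.3% L-arabinose, DNA abundance read by NGS, three biological replicates, DESeq2 with apeglm shrinkage.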

For the sequence RRIRKRPPRLPRPRPRPQFMPRP, the “shrunken log2 fold change” value is -0.54.
With RRIRRRPPRLPRPRPRPLLKPRP, the “shrunken log2 fold change” value stood at 0.415.
The result for RRIRGRPPRLPRPRPRPDIQPRP reads 1.9; that for RRIRFRPPRLPRPRPRPCPRPRP, 0.0155.
As for RRIRWRPPRLPRPRPRPKEEPRP, the figure is 1.07; as for RRIRIRPPRLPRPRPRPHHQPRP, -0.41; as for RRIRERPPRLPRPRPRPEFPPRP, -0.00557.
As for RRIRFRPPRLPRPRPRPLHIPRP, the figure is -0.7.
On to RRIRGRPPRLPRPRPRPQIGPRP, for which the “shrunken log2 fold change” value came to 0.345.
On to RRIRWRPPRLPRPRPRPHPIPRP, for which the “shrunken log2 fold change” value was 0.062.
The result for RRIRKRPPRLPRPRPRPCTPPRP reads 0.192; that for RRIRHRPPRLPRPRPRPCGMPRP, -0.0838.
Take RRIRARPPRLPRPRPRPPFHPRP: the “shrunken log2 fold change” value was 0.386.
With RRIRCRPPRLPRPRPRPYSYPRP, the “shrunken log2 fold change” value is -0.0951.
Turning to RRIRWRPPRLPRPRPRPTMKPRP, the “shrunken log2 fold change” value is -0.0612.
As to RRIRWRPPRLPRPRPRPVDCPRP, the “shrunken log2 fold change” value came to 0.00927.
As for RRIRNRPPRLPRPRPRPMDFPRP, the figure is -0.12; as for RRIRQRPPRLPRPRPRPTRMPRP, 0.185.
As to RRIRFRPPRLPRPRPRPRLEPRP, the “shrunken log2 fold change” value was determined as 0.392.
Take RRIRCRPPRLPRPRPRPTIEPRP: the “shrunken log2 fold change” value is -0.276.
As for RRIRVRPPRLPRPRPRPSKGPRP, the figure is -0.276; as for RRIRIRPPRLPRPRPRPDIRPRP, -0.00601.
For the sequence RRIRTRPPRLPRPRPRPAYPPRP, the “shrunken log2 fold change” value is -0.072.
On to RRIRYRPPRLPRPRPRPPVPPRP, for which the “shrunken log2 fold change” value worked out at 0.486.
Regarding RRIRWRPPRLPRPRPRPTPIPRP, the “shrunken log2 fold change” value is 0.419.
The result for RRIRDRPPRLPRPRPRPTAPPRP reads 0.365; that for RRIRDRPPRLPRPRPRPIVNPRP, -0.0751; that for RRIRHRPPRLPRPRPRPEFQPRP, -0.0862.
Consider RRIRDRPPRLPRPRPRPEAEPRP, for which the “shrunken log2 fold change” value was determined as 1.67.
The result for RRIRQRPPRLPRPRPRPAICPRP reads -0.0709; that for RRIRRRPPRLPRPRPRPEALPRP, 0.115; that for RRIRIRPPRLPRPRPRPHNPPRP, -1.23.
The result for RRIRPRPPRLPRPRPRPFQDPRP reads -0.0806.
For RRIRQRPPRLPRPRPRPERSPRP, the “shrunken log2 fold change” value came to 0.0688.
As for RRIRDRPPRLPRPRPRPALYPRP, the “shrunken log2 fold change” value worked out at 0.468.
The result for RRIRVRPPRLPRPRPRPHQLPRP reads -0.243; that for RRIRPRPPRLPRPRPRPYMMPRP, -0.309.
Consider RRIRIRPPRLPRPRPRPNPKPRP, for which the “shrunken log2 fold change” value was found to be 0.0309.
For the sequence RRIRTRPPRLPRPRPRPKHDPRP, the “shrunken log2 fold change” value was -0.099.
As for RRIRFRPPRLPRPRPRPCGGPRP, the figure is 0.12; as for RRIRQRPPRLPRPRPRPPAHPRP, 0.0556.
Turning to RRIRARPPRLPRPRPRPWTGPRP, the “shrunken log2 fold change” value stood at 0.00192.
The result for RRIRWRPPRLPRPRPRPATWPRP reads 0.152; that for RRIRWRPPRLPRPRPRPMFMPRP, -0.209; that for RRIRDRPPRLPRPRPRPRRTPRP, 0.186.
For RRIRDRPPRLPRPRPRPTYNPRP, the “shrunken log2 fold change” value is -0.365.
The result for RRIRDRPPRLPRPRPRPRAEPRP reads 0.552.
On to RRIRSRPPRLPRPRPRPPDHPRP, for which the “shrunken log2 fold change” value came to 0.202.
As for RRIRMRPPRLPRPRPRPPPYPRP, the figure is 1.15; as for RRIRDRPPRLPRPRPRPKPVPRP, 0.00913.
Regarding RRIRYRPPRLPRPRPRPIETPRP, the “shrunken log2 fold change” value is -0.0177.
As for RRIRPRPPRLPRPRPRPWYSPRP, the figure is -0.22; as for RRIRFRPPRLPRPRPRPWVWPRP, 0.212; as for RRIRPRPPRLPRPRPRPGMHPRP, 0.206.
The result for RRIRRRPPRLPRPRPRPDMVPRP reads 0.206; that for RRIRIRPPRLPRPRPRPPYWPRP, -0.00803; that for RRIRFRPPRLPRPRPRPKYYPRP, -0.386.
As for RRIRMRPPRLPRPRPRPGEGPRP, the figure is 1.23; as for RRIRVRPPRLPRPRPRPDRRPRP, 0.206.
In the case of RRIRVRPPRLPRPRPRPDSIPRP, the “shrunken log2 fold change” value was -0.149.
As for RRIRFRPPRLPRPRPRPFICPRP, the figure is -0.65; as for RRIRNRPPRLPRPRPRPVDCPRP, -0.209.
In the case of RRIRPRPPRLPRPRPRPFHDPRP, the “shrunken log2 fold change” value turned out to be 0.000303.
As to RRIRDRPPRLPRPRPRPMPKPRP, the “shrunken log2 fold change” value was -0.0503.
The result for RRIRSRPPRLPRPRPRPRMSPRP reads 0.0167.
For RRIRDRPPRLPRPRPRPQCHPRP, the “shrunken log2 fold change” value is -0.0594.
As for RRIRVRPPRLPRPRPRPYEEPRP, the figure is -0.128; as for RRIRCRPPRLPRPRPRPFNEPRP, -0.799; as for RRIRYRPPRLPRPRPRPNQHPRP, -1.18.
Regarding RRIRPRPPRLPRPRPRPYEPPRP, the “shrunken log2 fold change” value was -0.317.
With RRIRARPPRLPRPRPRPCEQPRP, the “shrunken log2 fold change” value was 0.233.
The result for RRIRSRPPRLPRPRPRPRMTPRP reads 0.251; that for RRIRRRPPRLPRPRPRPGNSPRP, 0.119; that for RRIRIRPPRLPRPRPRPPQDPRP, 0.0725.
Regarding RRIRERPPRLPRPRPRPSLEPRP, the “shrunken log2 fold change” value is -0.199.
The result for RRIRLRPPRLPRPRPRPILIPRP reads 0.198; that for RRIRMRPPRLPRPRPRPEYCPRP, 0.0929; that for RRIRCRPPRLPRPRPRPAMEPRP, 0.111.
Consider RRIRTRPPRLPRPRPRPIPYPRP, for which the “shrunken log2 fold change” value is -0.0288.
As for RRIRLRPPRLPRPRPRPKQLPRP, the figure is -0.0685; as for RRIRCRPPRLPRPRPRPPFHPRP, -0.224; as for RRIRERPPRLPRPRPRPKICPRP, 0.0135.
As to RRIRKRPPRLPRPRPRPWLYPRP, the “shrunken log2 fold change” value was 0.00941.
In the case of RRIRLRPPRLPRPRPRPNAEPRP, the “shrunken log2 fold change” value was found to be 0.143.
Take RRIRSRPPRLPRPRPRPNCGPRP: the “shrunken log2 fold change” value was -0.146.
In the case of RRIRSRPPRLPRPRPRPERQPRP, the “shrunken log2 fold change” value amounted to 0.1.
In the case of RRIRDRPPRLPRPRPRPVHVPRP, the “shrunken log2 fold change” value turned out to be 0.0158.
RRIRKRPPRLPRPRPRPPLMPRP: the “shrunken log2 fold change” value is 0.396.
The result for RRIRMRPPRLPRPRPRPREQPRP reads 0.0355; that for RRIRERPPRLPRPRPRPWIHPRP, 0.105.
On to RRIRFRPPRLPRPRPRPRAWPRP, for which the “shrunken log2 fold change” value was determined as 0.409.
As for RRIRSRPPRLPRPRPRPHMGPRP, the figure is -0.0366; as for RRIRGRPPRLPRPRPRPPDVPRP, 0.0671; as for RRIRPRPPRLPRPRPRPCFKPRP, -0.341.
The result for RRIRVRPPRLPRPRPRPKYHPRP reads -0.373; that for RRIRGRPPRLPRPRPRPAEFPRP, 0.69.
For RRIRRRPPRLPRPRPRPVPVPRP, the “shrunken log2 fold change” value turned out to be 0.128.
The result for RRIRARPPRLPRPRPRPECRPRP reads 0.874.
The result for RRIRRRPPRLPRPRPRPTMLPRP reads 0.0234; that for RRIRRRPPRLPRPRPRPHWTPRP, -0.12.
On to RRIRMRPPRLPRPRPRPISYPRP, for which the “shrunken log2 fold change” value was -0.0167.
As for RRIRTRPPRLPRPRPRPLQQPRP, the figure is -0.0185.
The result for RRIRQRPPRLPRPRPRPWMDPRP reads -0.118.
With RRIRYRPPRLPRPRPRPGTLPRP, the “shrunken log2 fold change” value is -0.803.
On to RRIRNRPPRLPRPRPRPSRLPRP, for which the “shrunken log2 fold change” value was 0.14.
As for RRIRMRPPRLPRPRPRPVSVPRP, the figure is 0.699; as for RRIRMRPPRLPRPRPRPGFVPRP, 0.449.
The result for RRIRRRPPRLPRPRPRPEPQPRP reads 1.03.
RRIRARPPRLPRPRPRPERDPRP: the “shrunken log2 fold change” value came out at 0.613.
As to RRIRKRPPRLPRPRPRPRVLPRP, the “shrunken log2 fold change” value came out at 0.498.
As for RRIRPRPPRLPRPRPRPQEIPRP, the figure is 0.017.
Consider RRIRDRPPRLPRPRPRPHDNPRP, for which the “shrunken log2 fold change” value is -0.323.
As for RRIRKRPPRLPRPRPRPRNFPRP, the figure is 0.731; as for RRIRRRPPRLPRPRPRPCTIPRP, -0.182.
The result for RRIRWRPPRLPRPRPRPRYEPRP reads 0.0756; that for RRIRSRPPRLPRPRPRPAAHPRP, 0.154.
For RRIRGRPPRLPRPRPRPHAIPRP, the “shrunken log2 fold change” value was 0.46.
On to RRIRHRPPRLPRPRPRPTGDPRP, for which the “shrunken log2 fold change” value is 0.208.
As for RRIRHRPPRLPRPRPRPVDDPRP, the figure is -0.221.
Take RRIRYRPPRLPRPRPRPTSYPRP: the “shrunken log2 fold change” value is -0.0849.
RRIRCRPPRLPRPRPRPNAEPRP: the “shrunken log2 fold change” value was 0.118.
As for RRIRFRPPRLPRPRPRPVEGPRP, the figure is -0.0615; as for RRIRRRPPRLPRPRPRPNFYPRP, -0.124; as for RRIRDRPPRLPRPRPRPWPKPRP, -0.149.
Take RRIRHRPPRLPRPRPRPAKKPRP: the “shrunken log2 fold change” value was 0.0694.

The values above are taken from the supplement of paper PMC9112550, “Optimization of the antimicrobial peptide Bac7 by deep mutational scanning” (BMC Biology, 2022).
